Read-outs that look alike come from different tables or passages of the source.
Tests used:
[1] = molecular target: T1, Human kappa opioid receptor (KOR) (Homo sapiens, UniProt P41145); experiment: Time-resolved SPA stability assay of high-affinity [3H]-DPN binding; settings: for τ1, exponential time constant: exponential decay fit; for N1, initial active receptor population: exponential decay fit (single for DDM, double for Nanodiscs)
T1 construct: made in house; host or cells: Pichia pastoris
Method: All procedures were performed on ice or at 4°C until assay counting was initiated at room temperature (23°C). Time-resolved stability assay with detergent-extracted MPs was carried out directly after solubilization in binding buffer I (20 mM Tris-HCl, pH 7.4, 500 mM NaCl, 5% glycerol, 1 mM PMSF, 0.1 mM TCEP, 0.4% BSA). Solubilized proteins were diluted in the assay resulting in a final concentration of 0.1% DDM in the assay buffer. Stability assays performed with KOR reconstituted in Nanodiscs were done in binding buffer II (20 mM Tris-HCl pH 7.4, 100 mM NaCl pH 7.4, 0.4% BSA). KOR/Nanodisc samples were added at quantities corresponding to approximately 30 fmol/well. Samples were mixed with 0.5 mg/well yttrium silicate (YSi) streptavidin coated SPA beads (Perkin Elmer) in binding buffer and a final concentrations of 10 nM [^3H]-DPN (42.3 Ci/mmol, Perkin Elmer) in a total volume of 200 μl. In parallel, the non-specific binding was measured including 50 μM naloxone in the assay. All measurements were performed in triplicates in a white-wall clear-bottom 96-well plate (Wallac). The assay was gently shaken on a vibrating platform at 4°C for 1.5 hours to equilibrate ligand binding and immobilization of receptors on the SPA beads. After incubation the assay was counted with a liquid scintillation counter (Wallac Microbeta TriLux 1450, SPA cpm mode) repeatedly with 17 min between measurements at room temperature. As a control, the same assay conditions as described above were performed at RT and bound and free radioligands were separated at specific time points on Sephadex G-50 gravity-flow columns (GE Healthcare) equilibrated in binding buffer. After applying 50 μl of samples, columns were centrifuged for 2 min at 1000 x g. Separated samples were mixed with scintillation liquid and incubated for 1 hour at RT, before counting on a liquid scintillation counter. As data analysis, specific binding was normalized to the initial binding at time zero, corresponding to initiation of assay counting at RT. The half-life of high-affinity ligand binding was calculated from fitting to single or double exponential decay functions in Igor Pro 6.1.

KOR = molecular target: KOR; design: method as in PMID 22437504, PMID 15956349; settings: literature value; cited from earlier work
[2] = molecular target: T2, Human kappa opioid receptor (KOR) reconstituted in Nanodiscs (Homo sapiens, UniProt P41145); settings: SPA saturation binding, one-site model
T2 construct: made in house; host or cells: Pichia pastoris (KOR)
T2 sequence (P41145 whole entry): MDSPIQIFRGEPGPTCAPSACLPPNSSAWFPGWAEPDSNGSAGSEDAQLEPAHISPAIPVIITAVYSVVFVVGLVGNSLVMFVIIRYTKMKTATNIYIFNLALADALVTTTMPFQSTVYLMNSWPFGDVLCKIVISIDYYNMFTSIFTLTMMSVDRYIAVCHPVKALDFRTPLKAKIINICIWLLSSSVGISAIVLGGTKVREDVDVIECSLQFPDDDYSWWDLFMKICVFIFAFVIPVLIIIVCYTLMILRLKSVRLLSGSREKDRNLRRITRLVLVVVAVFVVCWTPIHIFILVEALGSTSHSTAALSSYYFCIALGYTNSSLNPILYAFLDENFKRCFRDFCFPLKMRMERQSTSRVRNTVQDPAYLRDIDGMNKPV
Method: In parallel non-specific binding was measured in the presence of 50 μM naloxone. […] Therefore, saturation and inhibition binding assays were performed with reduced SPA beads/well; 0.25 mg/well of streptavidin-coated SPA YSI beads. […] Ki was measured from the IC50 value.

[3] = molecular target: T1, Human kappa opioid receptor (KOR); experiment: Radioligand filter binding assay (saturation), KOR in P. pastoris membranes; settings: one-site model, read-out: KD, P.Pastoris membrane
Method: Specific ligand binding to KOR in P. pastoris membranes was measured by radioligand filter binding assay. Isolated P. pastoris membranes were diluted in binding buffer (50 mM Tris-HCl pH 7.4, 0.5 M NaCl, 1mg/ml BSA) and mixed in triplicates with radioligand [^3H]-diprenorpine (DPN, 42.3 Ci/mmol, Perkin Elmer) in concentrations varying from 0.08 to 10 nM in a 96 well plate (MultiScreen HTS-FC 1.2/0.65 μm glass fiber filter), which was pre-wetted in washing buffer (50 mM Tris-HCl buffer, pH 7.4). Non-specific binding was measured in parallel by including 50 μM naloxone. For each binding experiment, membranes corresponding to 3–5 μg/well were used keeping the ratio of bound radioligand <10% of the total added radioligand. The assay mixture was incubated for 2 h at room temperature. To separate bound from free ligands, the plate was rapidly filtrated and washed four times with 100 μl ice-cold washing buffer. Scintillation liquid (Ultima Gold XR, Perkin Elmer) was added to the wells and the assay was counted by a liquid scintillation counter (Wallac Microbeta TriLux 1450). Specific binding was calculated and KD was measured from saturation curves fitted to a one-site binding model using Igor Pro 6.1.

[4] = 10 nM [3H]-DPN, 23°C, double exponential fit

T1 sequence (P41145 whole entry): as above

## KOR in DDM micelles: human kappa opioid receptor solubilized in DDM/CHS, 0.1%/0.02% in the assay
[1]; 10 nM [3H]-DPN, 23°C
  τ1, exponential time constant: 0.4 ± 0.01 h
  N1, initial active receptor population: 97.4 ± 1.5%
[1]; room temperature (23°C), 10 nM [3H]-DPN
  time to complete loss of ligand binding activity: ≤ 100 min

## diprenorpine [[3H]-DPN]
KOR
  Kd: 0.8 nM
[2]
  Kd: 0.8 ± 0.2 nM
[2]; listed as [^3H]-DPN
  Kd: 0.84 ± 0.15 nM
[3]; listed as [^3H]-DPN
  Kd: 0.94 ± 0.14 nM
[3]
  Kd: 0.9 ± 0.1 nM

## KOR in Nanodiscs: human kappa opioid receptor reconstituted in MSP1E3D1 Nanodiscs with POPC:POPG 3:2
[1]; [4]
  N2, initial active receptor population (slow component): 68.9 ± 0.7%
  τ2, exponential time constant: 36.8 ± 1.6 h
[1]; 10 nM [3H]-DPN, 23°C, double exponential fit, listed as KOR reconstituted in Nanodiscs
  N2, initial active receptor population (slow component): 68.9%
[1]; 10 nM [3H]-DPN, 23°C
  τ1, exponential time constant: 1.2 ± 0.1 h
  N1, initial active receptor population: 29.4 ± 0.8%
[1]; after counting for 100 minutes at room temperature, n = 5
  ligand binding relative to the initial activity after 100 minutes: 73.5 ± 2.5%
[1]; from fitted curves
  stability improvement (Taverage in Nanodiscs vs half-life in DDM micelles): approximately 70 fold

— PMC4817975 (PLoS ONE, 2016)
